Reference: patent publication US20250002527A1, “STEROID COMPOUND AND CONJUGATE THEREOF” (DUALITY BIOLOGICS (SUZHOU) CO., LTD., priority 2021, published 2025)

Legend:
Format in all cases: cell-based
human PBMC cells [1] = assay: TNF-α secretion from PBMC under R848 stimulation (compounds); conditions: R848 5 μM, 24 hours, mean ± standard deviation
Procedure: (§1) The compounds of the present application were tested for their inhibitory effect on the production of peripheral blood monocytes. The peripheral blood monocytes were treated in vitro with the ligand-drug conjugate at different concentrations, and IFNα and TNFα generated by the peripheral blood monocytes were quantitatively detected after a certain time. The compounds of the present invention were evaluated for in-vitro activity.
(§2) The cryopreserved human PBMC cells were resuspended in a complete medium and counted, and the cell suspension was adjusted to 2.5×10*6 cells/mL with the culture medium. After the suspension was centrifuged to collect the cells the next day, the cells were resuspended using fresh culture medium. Test compounds were diluted to 4-fold final concentration in cell culture medium, 50 μL of the compounds were added into a 96-well cell plate, and 100 μL of diluted cells ([…]) were added into each well of the 96-well plate containing the compounds, followed by addition of 50 μL R848 to a final concentration of 5 μM. The cell plate was incubated at 37° C. with 5% CO2 for 24 hours. The supernatant was collected, and the TNF-α and IFN-α concentration levels in the supernatant were detected using an ELISA kit.
TNF-α concentration assay was performed using Dakewe TNF-α ELISA kit (Cat #1117202), 100 μL of the serially-diluted cytokine standard was added into each well, 100 μL of the above supernatant diluted 10-fold was added into each well, and 100 μL of 1× dilution buffer R was added into each blank well. 50 μL of biotinylated antibody working solution was added into each well. After mixing well, the plate was covered with the plate-sealing membrane and incubated at room temperature for 3 hours. The plate was washed for 3 times: the liquid in each well was discarded, and 300 μL of 1× washing buffer working solution was added into each well; after 1 minute of residence, the liquid in the wells was discarded. The procedure was repeated for 3 times. 100 μL of Streptavidin-HRP working solution was added into each well. The plate was covered with the plate-sealing membrane and incubated at room temperature for 20 minutes. The plate was washed for 3 times, 100 μL of TMB liquid was added into each well, and the plate was incubated for 25 minutes at room temperature (18-25° C.) in the dark. The reaction was stopped by adding 100 μL stop solution rapidly to each well. The reading at a wavelength of 450 nm was detected by an M2e instrument within 10 minutes after termination.
(§3) The contents of TNF-α and IFN-α were calculated from the OD450 values.

human PBMC cells [2] = assay: IFN-α secretion from PBMC under R848 stimulation (compounds); conditions: R848 5 μM, 24 hours, mean ± standard deviation
Procedure: as §1, §2
50 μL of biotinylated antibody working solution was added into each well. After mixing well, the plate was covered with the plate-sealing membrane and incubated at room temperature for 3 hours. […] The procedure was repeated for 3 times. 100 μL of Streptavidin-HRP working solution was added into each well. The plate was covered with the plate-sealing membrane and incubated at room temperature for 20 minutes. The plate was washed for 3 times, 100 μL of TMB liquid was added into each well, and the plate was incubated for 25 minutes at room temperature (18-25° C.) in the dark. The reaction was stopped by adding 100 μL stop solution rapidly to each well. The reading at a wavelength of 450 nm was detected by an M2e instrument within 10 minutes after termination.
as §3

human PBMC cells [3] = assay: R848-induced IFNα release from PBMCs (drug conjugates, FIG. 1a); conditions: incubation concentration 300 nm
Procedure: (§4) 1a: R848-induced IFNα release from PBMCs; 1b: R848-induced TNFα release from PBMCs; 1c: R848-induced IL6 release from PBMCs, 1d: R848-induced IL8 release from PBMCs.
(§5) The inhibitory effect of the ligand-drug conjugate (ADC) of the present application on the production of IFNα by peripheral blood monocytes was examined. The peripheral blood monocytes were treated in vitro with the ligand-drug conjugate at different concentrations, and IFNα and TNFα generated by the peripheral blood monocytes were quantitatively detected after a certain time. The ligand-drug conjugates were evaluated for in-vitro activity.
(§6) The cryopreserved human PBMC cells were resuspended in a complete medium and counted, and the cell suspension was adjusted to 2.5×10*6 cells/mL with the culture medium. After the suspension was centrifuged to collect the cells the next day, the cells were resuspended using fresh culture medium, and 100 μL of diluted cells ([…]) were added into a 96-well plate. The test samples were diluted to 3-fold final stimulation concentration using fresh culture medium, 50 μL of the diluted test samples were added into the 96-well cell plate, and the cell plate was incubated at 37° C. with 5% CO2 for 12 hours, followed by addition of 50 μL 20 μM R848 each well. The cell plate was incubated at 37° C. with 5% CO2 for 20 hours. The supernatant was collected, and the cytokine concentration in the supernatant was detected using a kit.
(§7) IFN-α concentration assay was performed using Dakewe […] ELISA kit (Cat #1110012), 100 μL of the serially-diluted cytokine standard was added into each well, 100 μL of the above supernatant diluted 2-fold was added into each well, and 100 μL of 1× dilution buffer R was added into each blank well. 50 μL of biotinylated antibody working solution was added into each well. After mixing well, the plate was covered with the plate-sealing membrane and incubated at room temperature for 3 hours. […] The reading at a wavelength of 450 nm was detected by an M2e instrument within 10 minutes after termination.

human PBMC cells [4] = assay: R848-induced TNFα release from PBMCs (drug conjugates, FIG. 1b); conditions: incubation concentration 300 nm
Procedure: as §4, §5, §6
as §7, with “TNF-α” for “IFN-α”, “#1117202),” for “#1110012),”, “10-fold” for “2-fold”

human PBMC cells [5] = assay: R848-induced IL6 release from PBMCs (drug conjugates, FIG. 1c); conditions: incubation concentration 300 nm
Procedure: as §4, §5, §6
IL-6 concentration assay was performed using Dakewe IL-6 ELISA kit (Cat #DKW12-1060-096), 100 μL of serially-diluted cytokine standard was added into each well, 100 μL of the above supernatant diluted 2-fold was added into each well, and 100 μL of 1× dilution buffer R was added into each blank well. 50 μL of biotinylated antibody working solution was added into each well. After mixing well, the plate was covered with the plate-sealing membrane and incubated at room temperature for 3 hours. […] The reading at a wavelength of 450 nm was detected by an M2e instrument within 10 minutes after termination.

human PBMC cells [6] = assay: R848-induced IL8 release from PBMCs (drug conjugates, FIG. 1d); conditions: incubation concentration 300 nm
Procedure: as §4, §5, §6
IL-8 concentration assay was performed using Dakewe IL-8 ELISA kit (Cat #1110802), 100 μL of the serially-diluted cytokine standard was added into each well, 100 μL of the above supernatant diluted 2-fold was added into each well, and 100 μL of 1× dilution buffer R was added into each blank well. 50 μL of biotinylated antibody working solution was added into each well. After mixing well, the plate was covered with the plate-sealing membrane and incubated at room temperature for 3 hours. […] The reading at a wavelength of 450 nm was detected by an M2e instrument within 10 minutes after termination.

Molecule | TNF-α secretion (pg/mL) from PBMC under R848 stimulation (human PBMC cells [1]; compound 4 nM) | TNF-α secretion (pg/mL) from PBMC under R848 stimulation (human PBMC cells [1]; compound 20 nM) | TNF-α secretion (pg/mL) from PBMC under R848 stimulation (human PBMC cells [1]; compound 100 nM) | IFN-α secretion (pg/mL) from PBMC under R848 stimulation (human PBMC cells [2]; compound 20 nM) | IFN-α secretion (pg/mL) from PBMC under R848 stimulation (human PBMC cells [2]; compound 100 nM) | IFN-α secretion (pg/mL) from PBMC under R848 stimulation (human PBMC cells [2]; compound 4 nM) | IFN-α contents in the detection system (human PBMC cells [3]) | TNF-α contents in the detection system (human PBMC cells [4]) | IL-6 contents in the detection system (human PBMC cells [5]) | IL-8 contents in the detection system (human PBMC cells [6])
C[C@]12C=CC(=O)C=C1CC[C@@H]1[C@@H]2[C@@H](O)C[C@@]2(C)[C@H]1C[C@H]1O[C@@H](c3ccc(Cc4cccc(N)c4)cc3)O[C@]12C(=O)CO [Compound 14] | 868 pg/mL | 465.6 pg/mL | 471.9 pg/mL | 10.2 ± 10.2 pg/mL | 13 ± 13 pg/mL | – | – | – | – | –
C[C@@H]1C[C@H]2[C@@H]3CCC4=CC(=O)C=C[C@]4(C)[C@@]3(F)[C@@H](O)C[C@]2(C)[C@@]1(O)C(=O)CO [Dexamethasone, dexamethasone, reference compound] | 1446.5 pg/mL | 761.9 pg/mL | 396.4 pg/mL | 169.6 ± 94.4 pg/mL | 0 ± 0 pg/mL | 620.7 ± 70.4 pg/mL | – | – | – | –
Conjugate 19: antibody BIIB059 reacted with Compound 9 "to give Conjugate 19"; 4.75 by LC-MS (conjugate, chains of the INN, looked up, Compound 9 conjugate, antibody BIIB059 reacted with Compound 9 "to give Conjugate 19"; 4.75 by LC-MS) VH: DVQLVESGGGLVKPGGSLRLSCAASGFTFSTYTMSWVRQAPGKGLEWVATISPGDSFGYYYPDSVQGRFTISRDNAKNSLYLQMNSLRAEDTAVYYCTRDIYYNYGAWFAYWGQGTLVTVSS VL: DIQLTQSPSSLSASVGDRVTITCKASQSVDYDGDSYMNWYQQKPGKAPKLLIYAASTLESGVPSRFSGSGSGTDFTLTISSLQPEDFATYYCQQANEDPRTFGQGTKVEIK | – | – | – | – | – | – | 113.2 pg/mL | 761.8 pg/mL | 8861.7 pg/mL | 26565.5 pg/mL
Conjugate 21: antibody BIIB059 reacted with Compound 15 "to give Conjugate 21"; 4.30 by LC-MS (conjugate, chains of the INN, looked up, Compound 15 conjugate, antibody BIIB059 reacted with Compound 15 "to give Conjugate 21"; 4.30 by LC-MS) VH: DVQLVESGGGLVKPGGSLRLSCAASGFTFSTYTMSWVRQAPGKGLEWVATISPGDSFGYYYPDSVQGRFTISRDNAKNSLYLQMNSLRAEDTAVYYCTRDIYYNYGAWFAYWGQGTLVTVSS VL: DIQLTQSPSSLSASVGDRVTITCKASQSVDYDGDSYMNWYQQKPGKAPKLLIYAASTLESGVPSRFSGSGSGTDFTLTISSLQPEDFATYYCQQANEDPRTFGQGTKVEIK | – | – | – | – | – | – | 911.9 pg/mL | 2644.1 pg/mL | 29867.1 pg/mL | 43544.9 pg/mL
Conjugate 20: antibody BIIB059 reacted with Compound 16 "to give Conjugate 20"; 4.27 by LC-MS (conjugate, chains of the INN, looked up, conjugated to Compound 16, antibody BIIB059 reacted with Compound 16 "to give Conjugate 20"; 4.27 by LC-MS) VH: DVQLVESGGGLVKPGGSLRLSCAASGFTFSTYTMSWVRQAPGKGLEWVATISPGDSFGYYYPDSVQGRFTISRDNAKNSLYLQMNSLRAEDTAVYYCTRDIYYNYGAWFAYWGQGTLVTVSS VL: DIQLTQSPSSLSASVGDRVTITCKASQSVDYDGDSYMNWYQQKPGKAPKLLIYAASTLESGVPSRFSGSGSGTDFTLTISSLQPEDFATYYCQQANEDPRTFGQGTKVEIK | – | – | – | – | – | – | 1422.5 pg/mL | 3280.0 pg/mL | 34744.1 pg/mL | 56315.8 pg/mL
